Measured values from patent US20230144459A1 (BIOND BIOLOGICS, published 2023).
Where no end group is shown, it is not given here.

T1: L145K CD28 stalk region dimeric peptide (human, C-terminal biotin; dimeric)
T1 construct: also called CD28 stalk region peptide with mutation at the cleavage site
T1 peptide: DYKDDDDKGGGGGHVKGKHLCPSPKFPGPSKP

T2: c-Myc conjugated and biotinylated human CD28 stalk region dimeric peptide (wild-type) (human, C-terminal biotin; dimer by a disulfide linkage at Cysteine 141 (CD28 numbering))
T2 construct: N-terminal tag, five glycines, then His134-Pro152 of human CD28; also called substrate peptide; wild-type CD28 stalk region dimeric peptide
T2 peptide: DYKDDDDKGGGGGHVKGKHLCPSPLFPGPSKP

T3: BSA conjugated CD28 stalk region dimeric peptide (human, also: dimer, conjugated to BSA via C-terminal Lys)
T3 construct: also called stalk region peptide
T3 peptide: GKHLCPSPLFPGPSKPK


Columns and labels:
[1] = biological target: T1, L145K CD28 stalk region dimeric peptide; test: direct ELISA on biotinylated dimeric peptide on neutravidin plates
[2] = biological target: T2, c-Myc conjugated and biotinylated human …; test: direct ELISA, wild-type biotinylated dimeric stalk peptide on neutravidin plates
[3] = biological target: T4, membranal human CD28 (human, UniProt P10747 19-220); test: cell-based or functional assay
[4] = biological target: T4, membranal human CD28; test: flow cytometry on HEK293 cells over expressing human CD28; percent reduction of median CD86-Fc (2 µg/mL) signal; competitor CD86-Fc
[5] = biological target: T3, BSA conjugated CD28 stalk region …; test: ELISA, BSA conjugated dimeric peptide on plate, serial dilution of M9

Binder | binding result [1] | binding result [2] | Inhibition (%) of CD28 shedding [3] [%] | Blocking CD86 binding (%) [4] [%] | binding result [5]
VHH clone 4A4 (VHH, VHH with AAA linker and C-terminal His6, made in CHO cells) VHH: EVQLVESGGGLVQAGGSLRLSCAASGSLFSINAMAWYRQAPGKQRELVAAITSSGSTNYANSVKGRFTVSRDNAKNTMYLQMNSLKPEDTAVYYCVVDEYGSDYWIWGQGTQVTVSS | no binding (tested: 0.2-5 µg/mL) | binds | – | – | –
VHH clone 2A1 (VHH, VHH with AAA linker and C-terminal His6, made in CHO cells; also called VHH #2A1; 2A1-6H) VHH: EVQLVESGGGLVQAGESLRLSCAASGSIASINAMGWYRQAPGSQRELVAAISGGGDTYYADSVKGRFTISRDNAKTTVYLQMNSLRPEDTAVYYCVVDLYGSDYWDWGQGTQVTVSSAAAHHHHHH | no binding (tested: 0.2-5 µg/mL) | binds | 58.9 | 8.2 | –
VHH clone 4A1 (VHH, VHH with AAA linker and C-terminal His6, made in CHO cells) VHH: QVQLVESGGGLVQAGGSLRLSCAASGSIFSINAMGWYRQAPGKQRERVAAITSGGSTNYADSVKGRFTISRDNAKNTVYLQMNNLEPRDAGVYYCVVDLYGEDYWIWGQGTQVTVSS | no binding (tested: 0.2-5 µg/mL) | binds | – | – | –
antibody M9 (antibody, V domains shown, Full-size mouse antibody from CD1 mice immunised with the dimeric stalk peptide, detected with anti mouse IgG; also called clone M9; anti-cleavage antibody M9) VH: DVKLVESGGGLVKLGGSLKLSCVASGFTFSSYYMSWVRQTPEKRLEWVATISDGGDNTYYAGTVTGRFTISRDFAKNTLYLQMNSLTSEDTAVYYCARIHWPYYFDSWGQGTTLTVSS VL: QFVLSQSPAILSASPGEMLTMTCRASSSVSYMNWYQQKPGSSPKPWIYATSDLASGVPARFSGSGSGTSYSLTISRVEAEDAATYYCQQWSSHPPTFGGGTKLEIR | – | – | – | – | binds
